{"source": "patent US20230212266A1", "about": "(FRED HUTCHINSON CANCER CENTER, published 2023)", "binders": {"B1": {"name": "CV2-50 (antibody, V domains shown)", "VH": "QVQLVESGGGVVQPGRSLRLSCAASGFTFSSYGMHWVRQAPGKGLEWVAVISYDGSNQYYADSVKGRFTISRDNSKNTLYLQMNSLRAEDTAVYYCAKDPTIFGVVLQIPRFDYWGQGTLVTVSS", "VL": "EIVLTQSPATLSLSPGERATLSCRASQSVSSYLAWYQQKPGQAPRLLIYDASNRATGIPARFSGSGSGTDFTLTISSLEPEDFAVYYCQQRSNWPPTFGQGTKLEIK"}, "B2": {"name": "CV2-44 (antibody, V domains shown)", "VH": "QVQLVQSGAEVKKPGASVKVSCKASGYTFISYGISWVRQAPGQGLEWMGWISGYNGNTNYAQKFQGRVTMTTDTSTSTAYMELRSLRSDDTAVYYCARVRIFGVVIIVDTAMVLDYWGQGTLVTVSS", "VL": "QSVLTQPPSVSAAPGQKVTISCSGSSSNIGNNYVSWYQQLPGTAPKLLIYENNKRPSGIPDRFSGSKSGTSATLGITGLQTGDEAHYYCGTWDSSLSAGVFGGGTKLTVL"}, "B3": {"name": "CV2-43 (antibody, V domains shown)", "VH": "QVQLVQSGAEVKKPGSSVKVSCKASGGTFSSYAISWVRQAPGQGLEWMGGIIPIFGTANYAQKFQGRVTITADESTSTAYMELSSLRSEDTAVYYCARAYSYDSSGYSPDYWGQGTLVTVSS", "VL": "EIVLTQSPATLSLSPGERATLSCRASQSVSSYLAWYQQKPGQAPRLLIYDASNRATGIPARFSGSGSGTDFTLTISSLEPEDFAVYYCQQRSNWPPKLTFGGGTKVEIK", "notes": "expressed as IgG"}, "B4": {"name": "CV2-47 (antibody, V domains shown)", "VH": "QVQLVQSGAEVKKPGSSVKVSCKTSGGTFSNYAISWVRQAPGQGLEWMGGIIPIFGTANYAQKFQGRVTFTADESTSTAYMELSSLRSEDTAVFYCVSRIAAAADFDYWGQGTLVTVSS", "VL": "B3 VL with V29I, K97L"}, "B5": {"name": "CV2-45 (antibody, V domains shown)", "VH": "not shown", "VL": "AIQLTQSPSSLSASVGDRVTITCRASQGISSALAWYQQKPGKAPKLLIYDASSLESGVPSRFSGSGSGTDFTLTISSLQPEDFATYYCQQFNNYPLTFGGGTKVEIK"}}, "key": {"[1]": {"molecular_target": "T1, SARS-CoV-2 receptor binding domain (RBD) (SARS-CoV-2, UniProt P0DTC2 319-591)", "test": "BLI: mAb on anti-human Fc probe, dipped in the antigen"}, "[2]": {"molecular_target": "T1, SARS-CoV-2 receptor binding domain (RBD)", "test": "BLI: mAb on anti-human Fc probe, dipped in the antigen", "remark": "listed apart in the source"}, "[3]": {"molecular_target": "T1, SARS-CoV-2 receptor binding domain (RBD)", "test": "BLI, mAb on anti-human Fc probe, antigen in solution"}, "[4]": {"molecular_target": "T1, SARS-CoV-2 receptor binding domain (RBD)", "test": "BLI: mAb on anti-human Fc probe, dipped in the antigen", "remark": "listed apart in the source"}, "[5]": {"molecular_target": "T1, SARS-CoV-2 receptor binding domain (RBD)", "test": "BLI: mAb on anti-human Fc probe, dipped in the antigen", "remark": "listed apart in the source"}}, "note": "Changes are numbered by the printed parent chain.", "data": [{"binder": "B1", "values": [{"measurement": "binding result", "setting": "[1]", "result": "no binding"}]}, {"binder": "B2", "values": [{"measurement": "binding result", "setting": "[2]", "result": "no binding"}]}, {"binder": "B3", "values": [{"measurement": "binding result", "setting": "[3]", "result": "no binding"}]}, {"binder": "B4", "values": [{"measurement": "binding result", "setting": "[4]", "result": "no binding"}]}, {"binder": "B5", "values": [{"measurement": "binding result", "setting": "[5]", "result": "no binding"}]}]}
